Laboratory results as given in PMC6327041 (Nature Communications, 2019).

Biological target: T1, KDM5A1-797 (Homo sapiens, UniProt P29375)
T1 construct: KDM5A1-797 was cloned into a pFASTBAC HTA vector; His (N, cleaved yes); made in house; host or cells: Sf21 insect cells (baculovirus)
T1 sequence (P29375 1-797): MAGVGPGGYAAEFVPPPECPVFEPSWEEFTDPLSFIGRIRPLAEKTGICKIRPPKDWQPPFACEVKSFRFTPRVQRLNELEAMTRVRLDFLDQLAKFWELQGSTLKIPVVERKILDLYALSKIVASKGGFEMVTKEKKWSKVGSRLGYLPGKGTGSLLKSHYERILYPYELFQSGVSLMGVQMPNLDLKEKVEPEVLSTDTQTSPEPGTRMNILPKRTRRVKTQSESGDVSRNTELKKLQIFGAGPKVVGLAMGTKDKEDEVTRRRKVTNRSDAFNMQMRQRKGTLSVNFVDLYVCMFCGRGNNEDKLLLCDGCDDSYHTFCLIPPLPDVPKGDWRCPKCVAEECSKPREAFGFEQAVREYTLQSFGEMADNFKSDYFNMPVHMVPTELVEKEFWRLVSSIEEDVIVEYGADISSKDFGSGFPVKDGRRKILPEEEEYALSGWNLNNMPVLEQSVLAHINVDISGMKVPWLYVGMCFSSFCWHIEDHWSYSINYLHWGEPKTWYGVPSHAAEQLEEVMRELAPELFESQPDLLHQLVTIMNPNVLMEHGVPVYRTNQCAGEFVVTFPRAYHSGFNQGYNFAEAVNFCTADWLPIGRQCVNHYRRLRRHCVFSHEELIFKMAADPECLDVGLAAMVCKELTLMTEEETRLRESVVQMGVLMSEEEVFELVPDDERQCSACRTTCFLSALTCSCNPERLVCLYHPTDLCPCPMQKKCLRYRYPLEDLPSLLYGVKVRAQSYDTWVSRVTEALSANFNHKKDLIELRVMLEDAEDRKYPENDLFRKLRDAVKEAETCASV
Assay: HDX-MS of KDM5A with peptides
Experimental: Solution-phase amide HDX experiments were carried out with a fully automated system (CTC HTS PAL, LEAP Technologies, Carrboro, NC; housed inside a 4 °C cabinet).
Peptides were identified using tandem MS (MS^2 or MS/MS) experiments performed with a LTQ linear ion trap mass spectrometer (LTQ Orbitrap XL with ETD, Thermo Fisher, San Jose, CA) over a 70 min gradient. Product ion spectra were acquired in a data-dependent mode and the five most abundant ions were selected for the product ion analysis per scan event. The MS/MS *.raw data files were converted to *.mgf files and then submitted to MASCOT ver2.3 (Matrix Science, London, UK) for peptide identification. […]
For differential HDX experiments, 5 μl of 20 μM KDM5A1-797 was diluted to 25 μl with D2O-containing HDX buffer (40 mM HEPES, 50 mM KCl, pH 7.9) and incubated at 4 °C for 10, 30, 60, 900, and 3600 s. […] Percent deuterium exchange values for peptide isotopic envelopes at each time point were calculated and processed using HDX Workbench. […] The intensity weighted mean m/z centroid value of each peptide envelope was calculated and subsequently converted into a percentage of deuterium incorporation. Statistical significance for the differential HDX data is determined by an unpaired t-test for each time point, a procedure that is integrated into the HDX Workbench software. […]

| Substance | perturbation of deuterium uptake (Ac-H3K4me3 21mer alone (500 µM) vs apo, 4 °C, triplicate) | deuterium exchange of PHD1 residues Gly300-Ala342, both peptides (H3 10mer (100 µM) and Ac-H3K4me3 21mer (500 µM) both present vs apo) |
| --- | --- | --- |
| Ac-H3K4me3 21mer: N-terminally acetylated 21mer H3K4me3 peptide, catalytic domain substrate | no perturbations are observed |  |
| H3: unmodified N-terminal H3 tail 10mer peptide (H3 Ala1-Ser10), PHD1 effector ligand |  | increased protection observed in the PHD1 domain |
